Measurements reported in patent US20140127175A1 (ZEALAND PHARMA A S, published 2014).
Non-standard residues stand in square brackets, D forms with d.

B1: ZP2654 (peptide)
peptide: H-H[dS]QGTFTSDYSKYLDRARADDFVAWLKST-NH2
SMILES: CC(C)C[C@H](NC(=O)[C@H](Cc1c[nH]c2ccccc12)NC(=O)[C@H](C)NC(=O)[C@@H](NC(=O)[C@H](Cc1ccccc1)NC(=O)[C@H](CC(=O)O)NC(=O)[C@H](CC(=O)O)NC(=O)[C@H](C)NC(=O)[C@H](CCCNC(=N)N)NC(=O)[C@H](C)NC(=O)[C@H](CCCNC(=N)N)NC(=O)[C@H](CC(=O)O)NC(=O)[C@H](CC(C)C)NC(=O)[C@H](Cc1ccc(O)cc1)NC(=O)[C@H](CCCCN)NC(=O)[C@H](CO)NC(=O)[C@H](Cc1ccc(O)cc1)NC(=O)[C@H](CC(=O)O)NC(=O)[C@H](CO)NC(=O)[C@@H](NC(=O)[C@H](Cc1ccccc1)NC(=O)[C@@H](NC(=O)CNC(=O)[C@H](CCC(N)=O)NC(=O)[C@@H](CO)NC(=O)[C@@H](N)Cc1c[nH]cn1)[C@@H](C)O)[C@@H](C)O)C(C)C)C(=O)N[C@@H](CCCCN)C(=O)N[C@@H](CO)C(=O)N[C@H](C(N)=O)[C@@H](C)O

Target: human glucagon-like peptide 1 receptor (human, UniProt P43220 24-463)
Sequence (P43220 24-463): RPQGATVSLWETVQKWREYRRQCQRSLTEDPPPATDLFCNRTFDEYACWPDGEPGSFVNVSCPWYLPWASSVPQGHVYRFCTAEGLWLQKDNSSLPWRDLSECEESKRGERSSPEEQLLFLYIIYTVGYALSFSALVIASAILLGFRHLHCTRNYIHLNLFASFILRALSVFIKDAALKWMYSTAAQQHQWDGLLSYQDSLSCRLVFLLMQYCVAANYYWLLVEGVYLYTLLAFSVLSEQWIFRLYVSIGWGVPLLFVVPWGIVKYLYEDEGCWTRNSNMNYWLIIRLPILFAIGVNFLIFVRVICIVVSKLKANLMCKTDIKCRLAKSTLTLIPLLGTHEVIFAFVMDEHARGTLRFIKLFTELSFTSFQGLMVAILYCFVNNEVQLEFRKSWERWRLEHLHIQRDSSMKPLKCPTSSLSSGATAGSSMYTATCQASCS
Assay: cell-based or functional assay

Question: With H-HSQGTFTSDYSKYLDRARAHDFVAWLKST-NH2 [ZP2648] as the binder, how does the “EC50 of cAMP formation, HEK293 cells expressing human GLP-1R” value read?
Answer: Its value is 0.1 nM.

Question: For H-HSQGTFTSDYSKYLDRARADDFVAWLERA-NH2 [ZP2650], which “EC50 of cAMP formation, HEK293 cells expressing human GLP-1R” value is on record?
Answer: Its value is 0.8 nM.

Question: Which “EC50 of cAMP formation, HEK293 cells expressing human GLP-1R” value does the source give for H-HSQGTFTSDYSKYLDRARADDFVAWLKST-NH2 [ZP2495] here?
Answer: Its value is 0.23 nM.

Question: How did the “EC50 of cAMP formation, HEK293 cells expressing human GLP-1R” value turn out when H-HSQGTFTSDYSKYLDRARADDFVAWLKEA-NH2 [ZP2635] was run?
Answer: The value was 0.2 nM.

Question: H-HSQGTFTSDYSKYLDRARAEDFVAWLKST-NH2 [ZP2637] was tested. Which “EC50 of cAMP formation, HEK293 cells expressing human GLP-1R” value did it give?
Answer: The value was 0.1 nM.

Question: For H-HSQGTFTSDYSKYLDRARADDFVAWLKSA-NH2 [ZP2634], which “EC50 of cAMP formation, HEK293 cells expressing human GLP-1R” value is on record?
Answer: The value was 0.2 nM.

Question: With B1 as the binder, how does the “EC50 of cAMP formation, HEK293 cells expressing human GLP-1R” value read?
Answer: Its value is 0.8 nM.

Question: For H-HSQGTFTSDYSKYLDRARADDFVEWLKST-NH2 [ZP2649], which “EC50 of cAMP formation, HEK293 cells expressing human GLP-1R” value is on record?
Answer: The value was 0.1 nM.

Target: human glucagon receptor (human, UniProt P47871 26-477)
Assay: cell-based or functional assay

Question: For H-HSQGTFTSDYSKYLDRARAHDFVAWLKST-NH2 [ZP2648], which “EC50 of cAMP formation, HEK293 cells expressing human Glucagon-R” value is on record?
Answer: Its value is 0.2 nM.

Question: With H-HSQGTFTSDYSKYLDRARADDFVAWLERA-NH2 [ZP2650] as the binder, how does the “EC50 of cAMP formation, HEK293 cells expressing human Glucagon-R” value read?
Answer: Its value is 0.07 nM.

Question: For H-HSQGTFTSDYSKYLDRARADDFVAWLKST-NH2 [ZP2495], which “EC50 of cAMP formation, HEK293 cells expressing human Glucagon-R” value is on record?
Answer: Its value is 0.5 nM.

Question: With H-HSQGTFTSDYSKYLDRARADDFVAWLKEA-NH2 [ZP2635] as the binder, how does the “EC50 of cAMP formation, HEK293 cells expressing human Glucagon-R” value read?
Answer: Its value is 0.2 nM.

Question: With H-HSQGTFTSDYSKYLDRARAEDFVAWLKST-NH2 [ZP2637] as the binder, how does the “EC50 of cAMP formation, HEK293 cells expressing human Glucagon-R” value read?
Answer: Its value is 0.2 nM.

Question: H-HSQGTFTSDYSKYLDRARADDFVAWLKSA-NH2 [ZP2634] was tested. Which “EC50 of cAMP formation, HEK293 cells expressing human Glucagon-R” value did it give?
Answer: The value was 0.5 nM.

Question: With B1 as the binder, how does the “EC50 of cAMP formation, HEK293 cells expressing human Glucagon-R” value read?
Answer: The value was 0.5 nM.

Question: With H-HSQGTFTSDYSKYLDRARADDFVEWLKST-NH2 [ZP2649] as the binder, how does the “EC50 of cAMP formation, HEK293 cells expressing human Glucagon-R” value read?
Answer: The value was 0.3 nM.
